Measured values reported in patent US8383797B2, “Luciferase gene optimized for use in imaging of intracellular luminescence” (Toyo Boseki Kabushiki Kaisha, priority 2005, dated 2013).

Experiments:
[1] = test system: cultured fibroblast NIH3T3 cells; experiment: Real-time monitoring of luminescence under control of the Bmal1 promoter in living cells; type: cell-based; conditions: PEST-fused luciferase, NIH3T3, 200 μM D-luciferin
Description: Short lifespan-type luciferase was made by ligating a PEST sequence (SEQ ID NO: 7) of murine ornithine decarboxylase to a wild-type (SEQ ID NO: 1) and improved-type (SEQ ID NO: 2) click beetle luciferase cDNA. Vectors in which these had been inserted downstream of a murine circadian clock gene Bmal1 promoter (GenBank Accession No. AB064982) were made. Subsequently, 1 μg of each vector was introduced into cultured fibroblast NIH3T3 cells seeded in a 35 mm culture dish by a lipofection method (LipofectAMINE PLUS, Invitrogen), and the cells were cultured at 37° C. for 24 hours and treated with a DMEM medium containing 100 nM dexamethasone for 2 hours. The medium was replaced with a DMEM medium containing 200 μM D-luciferin and 10% (w/v) bovine serum, and then one minute of luminescence was measured every 15 minutes for 5 days in real time using a real-time gene expression measurement apparatus (AB2500 supplied from ATTO Corporation) (FIG. 1A).

[2] = test system: cultured fibroblast NIH3T3 cells; experiment: Transient assay of Bmal1 promoter activity, luminescence of cell extract; type: cell-based; conditions: PEST-fused luciferase, NIH3T3, cell lysate, luminometer
Description: The aforementioned reporter vector (200 ng) was introduced into the cultured fibroblast NIH3T3 cells seeded in a 24-well plate by the lipofection method, the cells were cultured at 37° C. for 24 hours, and disrupted with 300 μL of a cell lysis agent (cultured cell lysis agent for PicaGene Dual Seapansy supplied from Toyo Ink MFG Co., Ltd.). A luminescent substrate solution (50 μL) (PicaGene luminescence reagent II) was added to a cell extract solution (50 μL), and 20 seconds of luminescence was measured using a luminometer (AB2250 supplied from ATTO Corporation) (FIG. 1B).

[3] = test system: cultured fibroblast rat1 cells; experiment: Real-time monitoring of luminescence under control of the Bmal1 promoter in living cells; type: cell-based; conditions: PEST-fused luciferase, luminescence amount integrated within 24 hours
Description: Short lifespan-type luciferase was made by ligating the PEST sequence (SEQ ID NO: 7) of murine ornithine decarboxylase to firefly luciferase cDNA (Luc(+), supplied from Promega) derived from Photinus pyralis produced in North America and improved-type click beetle luciferase cDNA (SEQ ID NO: 2). Vectors in which these had been inserted downstream of a murine circadian clock gene Bmal1 promoter (GenBank Accession No. AB064982) were made. Subsequently, 1 μg of each vector was introduced into cultured fibroblast rat1 cells seeded in a 35 mm culture dish by the lipofection method (LipofectAMINE PLUS), and the cells were cultured at 37° C. for 24 hours and treated with the DMEM medium containing 100 nM dexamethasone for 2 hours. The medium was replaced with a DMEM medium containing 200 μM D-luciferin and 10% (w/v) bovine serum, and then one minute of luminescence was measured every 15 minutes for 5 days using the real-time gene expression measurement apparatus (AB2500 supplied from ATTO Corporation) (FIG. 2).

[4] = test system: cultured fibroblast NIH3T3 cells; experiment: Bioluminescence imaging of cells expressing FLAG-tagged luciferase; type: cell-based; conditions: CMV promoter, FLAG tag, NIH3T3, 200 μM D-luciferin, CCD camera, three minutes
Description: A FLAG tag sequence (MDYDDDDK; SEQ ID NO: 15) was ligated to the N terminus of the firefly luciferase cDNA (Luc(+), supplied from Promega) derived from Photinus pyralis produced in North America and the improved-type click beetle luciferase cDNA (SEQ ID NO: 2). The expression vector (2 μg) obtained by inserting one of them downstream of the CMV promoter was introduced in the cultured fibroblast NIH3T3 cells by the lipofection method, and the cells were cultured at 37° C. for 24 hours. Subsequently, the medium was replaced with a DMEM medium containing 200 μM D-luciferin and 10% (w/v) bovine serum, and three minutes of bioluminescence was measured using a CCD camera (Cellgraph supplied from ATTO Corporation) cooled to −60° C.

HeLa S3 cells = experiment: Analysis of AP1 response sequence in living cells, 96-well plate; type: cell-based; conditions: HeLa S3, TPA or EGF stimulation, 0.2 mM D-luciferin
Description: HeLa S3 cells were seeded at 3×10^4 cells (100 μL) per well in a 96-well white opaque plate, and cultured in Dulbecco's Modified Eagle's Medium DMEM (Nissui Pharmaceutical Co., Ltd.) containing 10% FCS. The following day, 0.2 μg per well of the plasmid pELuc-AP1 or pGL3-AP1 (diluted with 25 μL of DMEM containing no FCS) and 0.5 μL of Lipofectamine 2000 transfection reagent (Invitrogen, diluted with 25 μL of DMEM)) were mixed and added to the cells in the medium replaced with 100 μL of DMEM+0.1% FCS, which was incubated for 24 hours to introduce the gene. The following day, the medium was either not replaced, or replaced with DMEM+0.1% FCS (further containing 0.2 mM D-luciferin) containing 0.01 μM TPA (Sigma), 0.1 μM TPA, 1 μM TPA or 10 ng/mL of EGF, and the cells were incubated for 5 hours. Subsequently, the luminescence was measured using a plate reader 1420 ARVOMX (Perkin Elmer). In the graph for measurement values, readout values were plotted, and in the graph for induction ratios, an expression induction ratio at each concentration calculated when the value in an additive-free condition equaled 1 was plotted.

[5] = pH dependency of luminescence of recombinant luciferase enzyme preparations; type: biochemical; conditions: pH 6.6 to 8.8, relative activity with pH 8.0 set as 100
Description: A click beetle-derived luciferase enzyme preparation was acquired as a recombinant body by inserting the luciferase gene PtGRm in the vector pELuc-test (Toyobo Co., Ltd.) into the expression vector for Escherichia coli and expressing it in Escherichia coli. As a firefly luciferase enzyme preparation, QuantiLum Recombinant Luciferase (Promega, described as fLuc in the figure) was used. For each enzyme preparation, a luminescence reagent containing 15 mM MgSO4, 6 mM EDTA, 4 mM Co-enzyme A, 1.2 mM D-luciferin, 6 mM DTT, 0.2% Nonidet P40, 2 mM ATP and 2 μg/mL of the enzyme preparation was prepared. Then, 100 μL of ATP solution at […], 0.2 mM or 1 mM and 100 μL of 100 mM Hepes-NaOH pH 6.6 to 8.8 were mixed, and the luminescence was measured.
A graph of luminescence measurement values and a graph obtained by plotting the relative activity at each pH when the measurement value at pH 8.0 was set as 100 in each luciferase are shown in FIG. 12.

B1: improved-type click beetle luciferase: Pyrearinus termitilluminans click beetle luciferase expressed from the modified gene of SEQ ID NO: 2 (protein)
chain: MEREKNVVYGPEPKHPLGNFTAGEMLYNALHKHSHIPQAILDVMGNESLSYQEFFDTTVKLGQSLQNCGYKMNDVVSICAENNKRFFIPIISAWYIGMVVAPVNEDYIPDELCKVTGISKPILVFTTRKILPKVLEVKDRTNYIKRIIILDSEENLLGCESLHNFMSRYSDNNLQTFKPLHYDPVDQVAAILCSSGTTGLPKGVMQTHRNICVRLTHASDPRVGTQLIPGVSVLAYLPFFHAFGFSINLGYFMVGLRVVMLRRFNQEVFLKAIQDYEVRSVINVPSTILFLSKSPLVDKYDLSTLAELCCGAAPLAKEVAEIAVKRLNLPGIRCGYGLTESTSANIHTLHNEFKSGSLGKVTPYMAAKIIDRNTGEALGPNQVGELCIWGPMVTKGYVNNPQATKEAIDDDGWLHSGDFGYYDEDEYFYIVDRYKELIKYKGYQVAPVELEEILLQHPGIRDVAVVGIPDIEAGELPAGFVVKQPGAQLTAKEVYDFLAQRVSHSKYLRGGVRFVDSIPRNVTGKISRKELREALMEKASKL
modifications: Pyrearinus termitilluminans
luminescence intensity relative to wild-type luciferase [1]: about 100 times
luminescence intensity relative to wild-type luciferase [2]: about 150 times
luminescence intensity relative to firefly luciferase derived from Photinus pyralis [3]: ≥ 15 times
bioluminescence signal of cells compared with firefly luciferase [4]: clearly emit strong signals
luminescence intensity relative to conventional luciferase (HeLa S3 cells): 15 times
variation of luminescence activity due to pH compared with firefly luciferase [5]: variation due to the pH values is smaller
